The results in this text go back to PMC2975540 (Science (New York, N.Y.), 2009).

Assay [1] concerns the target T1, Nop5mut4 (D135A, L143K, V217E, E224A) (Methanocaldococcus jannaschii, UniProt Q58105 1-414, D135A | L143K | V217E | E224A).
T1 sequence (looked up): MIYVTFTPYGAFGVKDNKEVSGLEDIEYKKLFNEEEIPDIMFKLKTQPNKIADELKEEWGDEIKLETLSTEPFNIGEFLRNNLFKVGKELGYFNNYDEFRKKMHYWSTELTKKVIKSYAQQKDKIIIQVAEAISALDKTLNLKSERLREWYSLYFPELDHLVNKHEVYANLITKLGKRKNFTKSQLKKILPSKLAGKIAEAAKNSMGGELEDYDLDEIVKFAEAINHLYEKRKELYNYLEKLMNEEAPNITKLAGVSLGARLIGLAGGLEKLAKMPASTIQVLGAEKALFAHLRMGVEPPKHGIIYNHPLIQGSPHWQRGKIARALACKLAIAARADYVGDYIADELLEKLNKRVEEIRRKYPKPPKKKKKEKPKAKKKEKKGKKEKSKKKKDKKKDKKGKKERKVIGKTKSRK
Put plainly: co-sedimentation.

The target of a further assay is T2, Nop5mut2 (L143K, V217E) (Methanocaldococcus jannaschii, UniProt Q58105 1-414, L143K | V217E).
T2 sequence (looked up): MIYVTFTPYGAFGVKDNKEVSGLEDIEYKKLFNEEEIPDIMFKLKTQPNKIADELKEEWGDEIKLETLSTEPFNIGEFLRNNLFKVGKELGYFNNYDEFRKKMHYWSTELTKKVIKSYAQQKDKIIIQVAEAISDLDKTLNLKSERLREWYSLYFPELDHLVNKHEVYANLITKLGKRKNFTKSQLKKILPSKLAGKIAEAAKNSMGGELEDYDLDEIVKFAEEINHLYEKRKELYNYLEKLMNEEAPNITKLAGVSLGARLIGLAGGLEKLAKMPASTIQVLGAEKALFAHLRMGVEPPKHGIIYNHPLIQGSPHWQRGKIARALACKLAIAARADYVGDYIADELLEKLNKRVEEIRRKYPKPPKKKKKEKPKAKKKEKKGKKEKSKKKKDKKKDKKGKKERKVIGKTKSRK
As to the kind of experiment: co-sedimentation.

The target in assay [2] is T3, Methanocaldococcus jannaschii Nop5 (Methanocaldococcus jannaschii, UniProt Q58105 1-414).
T3 sequence (looked up): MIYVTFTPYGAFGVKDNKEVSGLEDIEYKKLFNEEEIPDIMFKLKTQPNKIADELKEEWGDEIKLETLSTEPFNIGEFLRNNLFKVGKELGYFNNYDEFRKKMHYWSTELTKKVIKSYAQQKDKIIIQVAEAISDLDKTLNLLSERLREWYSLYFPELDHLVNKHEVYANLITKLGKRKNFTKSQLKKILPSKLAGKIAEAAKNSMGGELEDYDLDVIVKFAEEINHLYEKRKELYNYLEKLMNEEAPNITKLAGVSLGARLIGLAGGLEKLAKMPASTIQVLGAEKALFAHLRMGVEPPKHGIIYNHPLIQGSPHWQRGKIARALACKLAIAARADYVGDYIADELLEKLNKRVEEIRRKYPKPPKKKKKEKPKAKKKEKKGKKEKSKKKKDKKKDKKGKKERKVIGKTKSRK
As to the kind of experiment: quantitative amino acid analysis.

B1: Methanocaldococcus jannaschii fibrillarin (enzyme, UniProt Q58108 1-230, looked up)
chain: MEDIKIKEIFENIYEVDLGDGLKRIATKSIVKGKKVYDEKIIKIGDEEYRIWNPNKSKLAAAIIKGLKVMPIKRDSKILYLGASAGTTPSHVADIADKGIVYAIEYAPRIMRELLDACAERENIIPILGDANKPQEYANIVEKVDVIYEDVAQPNQAEILIKNAKWFLKKGGYGMIAIKARSIDVTKDPKEIFKEQKEILEAGGFKIVDEVDIEPFEKDHVMFVGIWEGK
Regarding B1, the binding result in assay [1] was “binds”; with Nop5mut2 (L143K, V217E) it was “binds”. Besides, the stoichiometry N (in general, the number of molecules, sites or subunits per partner or assembly) in assay [2] was found to be 1.
